According to the supplement of paper PMC12636428:

test system: Saccharomyces cerevisiae; assay: transcriptional activation domain activity (GFP:mCherry ratio, weighted mean of sorted bins, harmonized to initial dataset scale) (arbitrary fluorescence ratio units); higher = stronger transcriptional activation; details: beta-estradiol 1 µM; induction time 4 h
Summary of the method: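 After a 1:5 dilution into SC with 1 uM beta-estradiol and 4 hours at 30 °C, yeast diploids carrying a GFP reporter and URA3-integrated barcoded tiles were sorted into 8 bins by GFP:mCherry ratio. The tiles were fused to an estradiol-inducible synthetic transcription factor. Barcodes were sequenced, tiles below 50 reads were discarded, and activation activity was taken as the read-weighted mean of bin median fluorescence, averaged across barcodes and linearly mapped onto the initial dataset scale.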

First: MSIPPRLFYITFLLCFFNLLAYFHSLLFLSFNFPLQYLFTVNSVMHLVVSLPG
Second: EWFVMFCMMLLLLFWFFPISALASLLSYEEIKKIMPWLGRLIDANENIRAIVQ
The “transcriptional activation domain activity” value of the first is lower: 53900 for the first, 62900 for the second.

Compared with “FAELRRARAGCFFFFFFLFFPFFSFFYFFLLFLFLFLPPFPFLSFPFFSLCVL”, “TFGLQTSDKNHYIVDAIHVAVARVGVYVQYPQLQKWSLGKIFYISVWKMRTKF” is higher in “transcriptional activation domain activity” value: 56100 for the first, 68800 for the second.

Compared with “FLHLLKYIRPSFAFYFTILFWWCIQVQLLLQIIINRIRVIVPDRRHSRHIMIA”, “DDADGKARSRRKDYSDDERGDTRRSRRDEHRSSKEHRSRTVKEGENDRRKAHR” is lower in “transcriptional activation domain activity” value: 68800 for the first, under 6570 for the second.

Compared with “IGIVYLLLCPFAFIFAYYFMRLRRTLIGSMPLSVINDPLLVELKVRFQLLDRG”, “MSTPFLANLLLIIWPTYYLLALSLHRALFQCTLSDFFSFFFFFFFFLFFLPFF” is higher in “transcriptional activation domain activity” value: 42000 for the first, 52800 for the second.

First: ERDDSRSERNVDDGDRRRAGRRRRDSRSSDDEHTTSRRRGGKDHADREDSDRR
Second: KISVCWLWGLDSLHLAFCIYMMYWYLITNFCVVAELGCFNIQTFFASKAFVIL
The “transcriptional activation domain activity” value of the first is lower: 29100 for the first, 49800 for the second.

First: MKGIRLYFRYVLLHVLLLLPSLPFFFPYLCRRFTCSFMNILIGFLFCFFLYIC
Second: NPPIPVIPADVDRSKIPKCKHIGSRLRHFDDDLGYYLVQVCINLLQRIWKIFY
The “transcriptional activation domain activity” value of the first is higher: 55300 for the first, 37200 for the second.

Going from “RRNRRTDKKRNEKESEHEGSTRKRTSYDKDDERAHSDSRRSRHHHRKERKNRH” to “RVELLLRSFKVFTLKTGEQCLDYLGDKFRVVLNLPEDWTNTAVGAWLVQKVIL”, the “transcriptional activation domain activity” value rises from 32100 to 39700.

Compared with “AKVWKFHFHGSYTKISVHVINMIYCTMRGHEIPSLHIFKCDRLLTLSVLLGYI”, “VLLYFCSGYMFAILITVAYILLQFLVPLITDAHVLFFEWTFFEFLFRIWFLLW” is higher in “transcriptional activation domain activity” value: 58200 for the first, 79500 for the second.

Going from “TSSPRRNSPPTRSTSSSPPSSPTSPYPSSSPPRPAPSPRPCARRGPKTPPSRP” to “MSMGIEFPFFTFRFSPSPLLLLLPFPPPFLPPFCLSAFFPSPLSPLPFPFLPS”, the “transcriptional activation domain activity” value rises from 30300 to 51400.

Compared with “LHGSIHEGLCRMLINIFIENLVLKEDVLLALCIQVLFPKEYITKGLMDAIKKD”, “NDLFAWPWGNPIDLDVAIALQETSIGCYNKRTTVFYANSCNTLLSLLVNKFLL” is higher in “transcriptional activation domain activity” value: 13900 for the first, 33300 for the second.

Compared with “YTLILSLFYSLAPVLFRLSSAAFFNISLLTGSFWGVAIGVKVFHLSIHWMYPI”, “MIASSPGGILCGILLFLLFFLLPCDLPLPFVSCFFSLFSPFLMFLFFLPYFFS” is lower in “transcriptional activation domain activity” value: 42600 for the first, 40700 for the second.

Going from “EDEEEAPAKVIKAKRAPPKRKAPAKDDDDEESAEEKPKKKKAPSKKAAAKAQA” to “MYGNLTYTEWSRYLADMLSMQKLLFVSVEANCRERILLLRISGRCPQLCPLWA”, the “transcriptional activation domain activity” value rises from 38200 to 47200.

Compared with “LCLRLMIKVAFSGEDTEVDFSMLQVAVRYILGIHGVNTLAPAWTFWGKCLDSM”, “MGYYVVLLTELLISCLCSPSLLYSPFLLICDSFPCSRRVFKLAFILFYILIVT” is higher in “transcriptional activation domain activity” value: 37000 for the first, 43400 for the second.

Compared with “PEALIQFNQVWVNHFKDPFTNIYYHQSPELSGSKYYELIYLRAFICLMFCFQF”, “AAGAAAPAKAAPAGARKARKGAAAAAPAAAPAAGAAPAQGAAAKKGGRLGGAA” is lower in “transcriptional activation domain activity” value: 55100 for the first, 30000 for the second.

Compared with “QSLENQTTETIDVSPDKHRLLIGRGGETRRAIESKFKVQLDIPKQTATGAARN”, “LPTGSLLPGVGPLRSLIFDLELTRHIVDAYDLYDILFHPRTLPLLCHLTYLHI” is lower in “transcriptional activation domain activity” value: 64100 for the first, 41800 for the second.

Going from “KINQIFGYRSGLGFSIITLDWNQIAYIGSPYVAGSFRWAEANVMIGFMFFYWF” to “SPSSQTTSSTTVVLVFGSDEKRVKEVGDGLKSKLAVKGGGKGTRWSGKYTGVW”, the “transcriptional activation domain activity” value falls from 70300 to 32000.

First: TSLRLVMFQITFLDLFFKAYGSNIARLDNNYGFPDKQLPERMVEEVKAIYKIN
Second: MKKKKGEGMKKERRRRGGEGGGKGALRREKKGTGTGKDGEREKQEKGEEGKCN
The “transcriptional activation domain activity” value of the first is higher: 56500 for the first, 29900 for the second.

First: TMWHCMDLLFCVAPGRLIRETASGLYVHHCFECGTKLEPQPLHSLTITAYHLA
Second: PCPETSTPPPPPPKPTTAYPPPKSSEAPPPPPPKPTTAYPPPPKSSEAPPPPP
The “transcriptional activation domain activity” value of the first is higher: 52300 for the first, 47900 for the second.

Going from “LHYIYVVAISKSLSRLTLSYYTPAQLAMIGYFNLHIIWLKLMIPWRFFRLWSL” to “GDEKLAKGRGDEKPAKGKGKEKKAKAKGKKAKGEKKAEDKENAVKESLENAVK”, the “transcriptional activation domain activity” value falls from 43200 to 32800.

Going from “EDAGDDAAPSAKKANVSKKRKKADESDGENDKPVKTPKTKLKLTTKTPKEPSA” to “ALGLLFVCEQIELYPQTARIFGLRLIYVILLLHLFLPFTDSLPWLKTLFSILT”, the “transcriptional activation domain activity” value rises from 36100 to 54600.

First: MRKLQVRSWSGLHVLSHFQIFDLLALIPGGWCNQILWLQGHHQWYIVILFVFT
Second: MVMYHWGMRCVFLYTNYIIFGFGFVFSFLFSFFFFFFPFTCIFFFLFYLIFIF
The “transcriptional activation domain activity” value of the first is higher: 65800 for the first, 58900 for the second.

Going from “KPKAAAKAAKPAKKAAPEKAEKPEKPEKAKEVEKPEKPEKVSKPAAKKAAPVA” to “TRTRKWWLRTVWACTWLIPSFLLSSVGRMKRPDVRLAWREKVTIFWLIFLFNG”, the “transcriptional activation domain activity” value rises from 25000 to 68900.

Going from “DSSFDLNMNLDLNLNLDSNFNIALNRSDSSGSTMNLDYKLPESANNYTYSSGS” to “DLIQTKQLQNALLTHPRRNTLTGLQFTMQNVLDLLKYILTMILYRPSQFRWAA”, the “transcriptional activation domain activity” value falls from 90700 to 82500.

Going from “NGTPETHGESIDSKRPRACEACRGLKVKCEPDPTNPDGPCKRCTKANRNCVVT” to “LTEHSNVNSVIWTNDLLNLNFTNILNMGLYINPKNLIPISGNNNNNKSNEEDD”, the “transcriptional activation domain activity” value rises from 25800 to 62300.

First: MRFLLLSFPCNHHPSLSLYISSISLFLLRPFIFLSLLFFCIVSYYLGVCVVWG
Second: MFFIIILFLVIYSGKISSNFLSFLYRLLLFMLISAQLSVLHCYCLYIFHRCYC
The “transcriptional activation domain activity” value of the first is higher: 53500 for the first, 30900 for the second.

First: EESLGAGMAKLNLDSATPSSHKSEPIFIAIDCEAYEEGAHAVTEVGVATLDTR
Second: EGAADGRDEGEKSKVQKVGKACVYCQRSHMTCDESRPCKRCVSRKIADLCHDR
The “transcriptional activation domain activity” value of the first is higher: 56000 for the first, 29900 for the second.

First: EIVDPMQSWLPFQPEASDNVLPDENFFLDDSLFTFGDTLTPNFGPVEWYDLLA
Second: MSLKEDDFGKDNSRNIESYTGRIFDVYIQKDSYSQSALDDMFPEAVVSTAACV
The “transcriptional activation domain activity” value of the first is higher: 140000 for the first, 32700 for the second.

Going from “VDASTIARLSSPELGAREQLRQEEERRRKIERRARRRERRERERSSALLHLTG” to “AHYLNHNPHQPSMGFDQALGLKLSPSSSGLLSTNESNAIEQFLDNLISQDMMS”, the “transcriptional activation domain activity” value rises from 33400 to 110000.

Compared with “CKAHCGYILGHINIFQPINWIFVISSKVFPIDYVLYLLLILFFFSASVVGIAT”, “ELILVQDLCGTFCCSMQFLVLMDLLGNVVLPSSVIFFYYLIFAYFFGYPVAMP” is higher in “transcriptional activation domain activity” value: 51900 for the first, 60100 for the second.

Compared with “PTGRSSTPTSASSTRARRTRGSASARSSRAAGGGSCSSTCRSPPGRVPRTSVS”, “SRLCLVSVGECLLLLSLVWGLLLLISLYLVLFFLHCVCMSGLFLCDLFELFVT” is higher in “transcriptional activation domain activity” value: 36800 for the first, 64800 for the second.

First: LLLLPVSFLVLSGIYSPFILILFDSPWPVLYVLIYFPLCYFVLSPYIIFALSP
Second: MYLAVHWFYISGCTHHIFMIFLFMSKFLCLLMLLLSSCVVLSSFRTIFVLSFS
The “transcriptional activation domain activity” value of the first is lower: 51200 for the first, 62700 for the second.

Going from “MKSHDLFFFLLLLFQLTSFSSIQLFPAVRVILHVLSHLFMVLHAYCCLPPFIF” to “WRGRLVQRRSNDHEIDFVPYKTIYGGFWSHVNPSRLAVPRYLNIFRIIVWLFF”, the “transcriptional activation domain activity” value falls from 64400 to 54400.

Compared with “ALLAISLTSFLCSSVFLEIETWCKKYRSHLLLVLMIPMVEPLISLFISFMWLL”, “LPSSLLFLLPHLFPTLPLLPSIPLLTPSSSSLFFHLICLYCPPFAFWAWFWFW” is lower in “transcriptional activation domain activity” value: 62500 for the first, 55900 for the second.

Compared with “IAKEIGKRLGFDENSEISYLAGIWSHCIAQQLIWNVAGGLLRVRGWLWKINLS”, “FLDCLKYILHNSHHLLVTVCDSFERTVRGLNKLKKMNVRQKDIYIGYYLLQYG” is lower in “transcriptional activation domain activity” value: 79900 for the first, 46200 for the second.

Going from “EEERGEERREGEERVEQGEEGAGGEGDEEGRSAEHGAGGELAERRGEAGDAEV” to “ILRVERTGHSGTLDPKVTGCLIVCIDRATRLVKSQQGAGKEYVAVIRLHGKLP”, the “transcriptional activation domain activity” value rises from 22900 to 33800.

Compared with “AGRWQYATLFFSGVSGGATLALSLCVITHPSLLTRIVVICIFVTLISAFTILP”, “QGDTDADGNGHGTHCSGTIAGKKYGVAKKAHVYAVKVLRSNGSGTMADVIGGV” is higher in “transcriptional activation domain activity” value: 27900 for the first, 59600 for the second.

Going from “VEEVLEKRAHRGPAGRSVEEEDEDVEEVLEKRAHRGPAGRSVEVEEKRAHRGP” to “KEGMGWVDVLFSVCTSIILVQLVFVLGWWLLFLFLSMYHMLTFCIIIFILYKY”, the “transcriptional activation domain activity” value rises from 29700 to 53300.

First: VGVWIWVRVDLLSYRKAGFIDWLFTDVPPKLALIAIFNVHILHTLLLALQWYT
Second: MLMHASPRMPIVQIFFFIFIHLSPPPFPFFFSLILSHRYSISFFLSLFSLLYF
The “transcriptional activation domain activity” value of the first is higher: 55400 for the first, 35800 for the second.

Going from “HSMPSLATICGVCFIVDVYCIMRISLLHSYWIPMRRTLPLLAFPVVSFIFLFF” to “MVVVSCLSGAFLFFLFVHVVSGALFTYYSLLSLIFSLYHSILFVCWADLFFFF”, the “transcriptional activation domain activity” value falls from 79400 to 57100.

Compared with “AFLLFLIYLTLFCWVCFATSSTWVWSEILSDGQYTESFMPVNYVLLAVLSGII”, “LSEPMAKNPYYYLCVLARIVVVKFAMLLRIIYGVYVPIYTYSAYCFLTDITLF” is higher in “transcriptional activation domain activity” value: 49600 for the first, 62900 for the second.

Compared with “LLICSVVALVTCLAFLTNLTSMVPNFVLACLPLTAFLIFGTHSDLLRVWCFWW”, “TGEKFGIKRKEQQKPEQTAEETVALAKNDTPSFASVFILAYGIHKTLLLPVRL” is higher in “transcriptional activation domain activity” value: 28700 for the first, 41500 for the second.

“LRNGYVDLGTHCITLFAQLMYVDCRTVFAEQIFTLAWYTTKGMGTIIATIGDY” was tested, and the “transcriptional activation domain activity” value was 43400.
